Test [1] deals with T1, His-tagged human FcγRIIA (H131) (human, UniProt P12318 36-218, limits assumed).
T1 construct: His-tagged, captured on anti-penta-histidine chip; also called hFcyRIIA (H131); FcRγIIA
T1 sequence (looked up): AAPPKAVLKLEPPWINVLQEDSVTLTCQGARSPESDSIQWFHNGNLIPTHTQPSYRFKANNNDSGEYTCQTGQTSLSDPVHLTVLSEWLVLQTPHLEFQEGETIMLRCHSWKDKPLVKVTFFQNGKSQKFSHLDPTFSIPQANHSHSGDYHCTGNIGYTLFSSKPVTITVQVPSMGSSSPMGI
The experiment in a line: SPR steady-state, 25 C, His-tagged FcγR captured, antibody injected. On the procedure:
(§1) The anti-CD3×anti-CD20 bispecific antibodies having chimeric constant heavy chain regions Antibody 1 and Antibody 4 were analyzed using Surface Plasmon Resonance (SPR) (Biacore) technology to determine their kinetic binding parameters to human and cynomolgus Fcγ receptors.
(§2) Briefly, SPR experiments were performed at 25° C. on a Biacore T200 instrument employing a carboxymethyl dextran-coated (CM-5) chip. A mouse monoclonal anti-penta-histidine antibody (GE Healthcare) was immobilized on the surface of the CM-5 sensor chip using standard amine-coupling chemistry. […] Kinetic association (kₐ) and dissociation (kd) rate constants were determined by processing and fitting the data to a 1:1 binding model using Scrubber 2.0 curve fitting software. Binding dissociation equilibrium constants (KD) and dissociative half-lives (t_{1/2}) were calculated from the kinetic rate constants as: KD (M)=kd/kₐ; and t_{1/2} (min)=(ln 2/(60*kd).

Test [2] has as its target T2, His-tagged cynomolgus FcγRIIIA (cynomolgus, UniProt Q8SPW2 17-208, limits assumed).
T2 construct: His-tagged, captured on anti-penta-histidine chip; also called cyno FcyRIIIA
The description is as above. The protocol:
as §1, §2

Test [3] addresses T3, His-tagged human FcγRIIB (human, UniProt P31994 46-217, limits assumed).
T3 construct: His-tagged, captured on anti-penta-histidine chip; also called human FcyRIIB; FcRγIIB
T3 sequence (looked up): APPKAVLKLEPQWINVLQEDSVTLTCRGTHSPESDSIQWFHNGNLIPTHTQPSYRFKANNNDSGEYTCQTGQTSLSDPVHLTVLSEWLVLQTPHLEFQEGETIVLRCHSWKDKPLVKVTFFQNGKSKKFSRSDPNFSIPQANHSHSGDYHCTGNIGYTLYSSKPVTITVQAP
The description is as above. The protocol: as §1, §2

In test [4] the target is T4, His-tagged cynomolgus FcγRIIA (cynomolgus, UniProt A0A140HDN0 28-215).
T4 construct: His-tagged, captured on anti-penta-histidine chip; also called cyno FcyRIIA
T4 sequence: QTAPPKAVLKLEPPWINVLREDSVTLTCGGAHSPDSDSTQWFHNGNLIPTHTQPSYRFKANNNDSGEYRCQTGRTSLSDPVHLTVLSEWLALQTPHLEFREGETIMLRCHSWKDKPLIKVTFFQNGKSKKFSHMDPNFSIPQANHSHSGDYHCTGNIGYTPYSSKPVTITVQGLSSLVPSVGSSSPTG
The description is as above. On the procedure:
as §1, §2

Test [5] addresses T5, His-tagged human FcγRIIA (R131) (human, UniProt P12318 36-218, limits assumed).
T5 construct: His-tagged, captured on anti-penta-histidine chip; also called human FcyRIIA (R131); FcRγIIA
T5 sequence (looked up): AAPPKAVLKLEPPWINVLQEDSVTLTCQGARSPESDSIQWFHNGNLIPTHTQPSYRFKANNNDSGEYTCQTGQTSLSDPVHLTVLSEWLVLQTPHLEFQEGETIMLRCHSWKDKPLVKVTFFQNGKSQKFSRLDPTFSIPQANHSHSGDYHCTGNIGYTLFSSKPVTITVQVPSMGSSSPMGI
Described as above. On the procedure: as §1, §2

The target of test [6] is T6, His-tagged cynomolgus FcγRIIB (cynomolgus, UniProt A0A140HDP4 43-217).
T6 construct: His-tagged, captured on anti-penta-histidine chip; also called cyno FcyRIIB
T6 sequence: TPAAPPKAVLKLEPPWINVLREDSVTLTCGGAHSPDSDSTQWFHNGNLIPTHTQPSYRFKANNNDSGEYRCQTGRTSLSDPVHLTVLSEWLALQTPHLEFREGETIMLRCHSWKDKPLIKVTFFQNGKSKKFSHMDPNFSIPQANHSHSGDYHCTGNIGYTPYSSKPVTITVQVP
Described as above. The protocol:
as §1, §2

The target in test [7] is T7, human CD20 (on Raji cells, CD3-, CD20+ human B-cell line; on B16F10.9/CD20 cells) (human, UniProt P11836 1-297).
T7 sequence (looked up): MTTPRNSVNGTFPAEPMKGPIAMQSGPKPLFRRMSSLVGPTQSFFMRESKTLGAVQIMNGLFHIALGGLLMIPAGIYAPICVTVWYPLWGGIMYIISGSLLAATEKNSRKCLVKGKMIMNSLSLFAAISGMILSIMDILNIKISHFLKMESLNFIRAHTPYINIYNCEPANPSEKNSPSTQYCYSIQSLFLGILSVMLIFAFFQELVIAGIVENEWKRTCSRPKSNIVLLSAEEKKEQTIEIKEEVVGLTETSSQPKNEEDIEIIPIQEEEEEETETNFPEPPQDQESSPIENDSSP
Kind of test: cell-based or functional assay.

In test [8] the target is T7, human CD20 (on Raji cells, CD3-, CD20+ …). The experiment in a line: cell-based or functional assay. The source holds these as a separate data set.

The text below walks through data of patent publication US20180194841A1 (Regeneron, published 2018).

T2 sequence (Q8SPW2 17-208 limits assumed): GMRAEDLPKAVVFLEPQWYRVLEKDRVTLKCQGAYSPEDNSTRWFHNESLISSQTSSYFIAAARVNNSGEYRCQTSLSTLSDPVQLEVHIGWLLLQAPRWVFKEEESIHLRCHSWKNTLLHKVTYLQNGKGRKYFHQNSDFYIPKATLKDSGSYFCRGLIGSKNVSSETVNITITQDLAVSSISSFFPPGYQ

B1: Antibody 2 (CD3×CD20-chimericFc bispecific antibody) (bispecific antibody)
heavy 1: EVQLVESGGGLVQPGRSLRLSCVASGFTFNDYAMHWVRQAPGKGLEWVSVISWNSDSIGYADSVKGRFTISRDNAKNSLYLQMHSLRAEDTALYYCAKDNHYGSGSYYYYQYGMDVWGQGTTVTVSSASTKGPSVFPLAPSSKSTSGGTAALGCLVKDYFPEPVTVSWNSGALTSGVHTFPAVLQSSGLYSLSSVVTVPSSSLGTQTYICNVNHKPSNTKVDKKVEPKSCDKTHTCPPCPAPPVAGPSVFLFPPKPKDTLMISRTPEVTCVVVDVSQEDPEVQFNWYVDGVEVHNAKTKPREEQFNSTYRVVSVLTVLHQDWLNGKEYKCKVSNKGLPSSIEKTISKAKGQPREPQVYTLPPSRDELTKNQVSLTCLVKGFYPSDIAVEWESNGQPENNYKTTPPVLDSDGSFFLYSKLTVDKSRWQQGNVFSCSVMHEALHNHYTQKSLSLSPGK
heavy 2: EVQLVESGGGLVQPGRSLRLSCAASGFTFDDYTMHWVRQAPGKGLEWVSGISWNSGSIGYADSVKGRFTISRDNAKKSLYLQMNSLRAEDTALYYCAKDNSGYGHYYYGMDVWGQGTTVTVASASTKGPSVFPLAPSSKSTSGGTAALGCLVKDYFPEPVTVSWNSGALTSGVHTFPAVLQSSGLYSLSSVVTVPSSSLGTQTYICNVNHKPSNTKVDKKVEPKSCDKTHTCPPCPAPPVAGPSVFLFPPKPKDTLMISRTPEVTCVVVDVSQEDPEVQFNWYVDGVEVHNAKTKPREEQFNSTYRVVSVLTVLHQDWLNGKEYKCKVSNKGLPSSIEKTISKAKGQPREPQVYTLPPSRDELTKNQVSLTCLVKGFYPSDIAVEWESNGQPENNYKTTPPVLDSDGSFFLYSKLTVDKSRWQQGNVFSCSVMHEALHNRFTQKSLSLSPGK
light: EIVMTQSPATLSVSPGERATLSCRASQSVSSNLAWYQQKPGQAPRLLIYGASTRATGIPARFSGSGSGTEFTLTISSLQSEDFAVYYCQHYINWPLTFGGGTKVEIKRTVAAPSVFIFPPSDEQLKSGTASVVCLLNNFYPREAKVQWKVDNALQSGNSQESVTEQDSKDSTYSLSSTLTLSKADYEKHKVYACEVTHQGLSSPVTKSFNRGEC
notes: also called Ab 2
Regarding B1, the Kd in test [1] amounted to 11.7 µM; in test [2], 42.4 µM; in test [3], 233 µM; in test [4], 23.5 µM; in test [5], 20.5 µM; in test [6], 14.6 µM.

B2: Antibody 1 (CD3×CD20-chimericFc bispecific antibody) (bispecific antibody)
heavy 1: EVQLVESGGGLVQPGRSLRLSCVASGFTFNDYAMHWVRQAPGKGLEWVSVISWNSDSIGYADSVKGRFTISRDNAKNSLYLQMHSLRAEDTALYYCAKDNHYGSGSYYYYQYGMDVWGQGTTVTVSSASTKGPSVFPLAPCSRSTSESTAALGCLVKDYFPEPVTVSWNSGALTSGVHTFPAVLQSSGLYSLSSVVTVPSSSLGTKTYTCNVDHKPSNTKVDKRVESKYGPPCPPCPAPPVAGPSVFLFPPKPKDTLMISRTPEVTCVVVDVSQEDPEVQFNWYVDGVEVHNAKTKPREEQFNSTYRVVSVLTVLHQDWLNGKEYKCKVSNKGLPSSIEKTISKAKGQPREPQVYTLPPSQEEMTKNQVSLTCLVKGFYPSDIAVEWESNGQPENNYKTTPPVLDSDGSFFLYSRLTVDKSRWQEGNVFSCSVMHEALHNHYTQKSLSLSLGK
heavy 2: EVQLVESGGGLVQPGRSLRLSCAASGFTFDDYTMHWVRQAPGKGLEWVSGISWNSGSIGYADSVKGRFTISRDNAKKSLYLQMNSLRAEDTALYYCAKDNSGYGHYYYGMDVWGQGTTVTVASASTKGPSVFPLAPCSRSTSESTAALGCLVKDYFPEPVTVSWNSGALTSGVHTFPAVLQSSGLYSLSSVVTVPSSSLGTKTYTCNVDHKPSNTKVDKRVESKYGPPCPPCPAPPVAGPSVFLFPPKPKDTLMISRTPEVTCVVVDVSQEDPEVQFNWYVDGVEVHNAKTKPREEQFNSTYRVVSVLTVLHQDWLNGKEYKCKVSNKGLPSSIEKTISKAKGQPREPQVYTLPPSQEEMTKNQVSLTCLVKGFYPSDIAVEWESNGQPENNYKTTPPVLDSDGSFFLYSRLTVDKSRWQEGNVFSCSVMHEALHNRFTQKSLSLSLGK
light: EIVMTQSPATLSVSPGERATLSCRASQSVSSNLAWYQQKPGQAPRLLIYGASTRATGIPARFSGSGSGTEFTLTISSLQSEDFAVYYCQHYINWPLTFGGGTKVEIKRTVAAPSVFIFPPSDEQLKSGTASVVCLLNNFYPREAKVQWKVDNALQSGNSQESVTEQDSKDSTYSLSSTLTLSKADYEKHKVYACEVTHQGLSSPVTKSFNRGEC
notes: also called Ab 1; Ab1
Regarding B2, the Kd in test [1] is 12 µM; in test [2], 66.3 µM; in test [3] it was 123 µM; in test [4], 23.1 µM; in test [5], 19.3 µM; in test [6] it was 13.9 µM. Also, the “Raji Cytotoxicity Activated Human T-cells [M] (EC50, calcein release)” value in test [7] was 2.5e-11 M. Besides, the “Raji Cytotoxicity Activated Monkey T-cells [M] (EC50, calcein release)” value in test [7] is 9.1e-12 M. Besides, the “% Survival B16F10.9/CD20 cells [M] (EC50, FACS, naive human PBMC effectors, 48 h)” value in test [8] turned out to be 1.95e-11 M.

The term Kd denotes the equilibrium constant for the complex coming apart.
